Experimental data reported in publication PMC4746669, “Attenuation of ligand-induced activation of angiotensin II type 1 receptor signaling by the type 2 receptor via protein kinase C” (Scientific Reports, 2016).

Assays:
[1] = target: T1, FLAG-AT2R-CFP (angiotensin II type 2 receptor) (human, UniProt P50052 1-363); assay: co-IP; HeLa cells co-transfected with HA-AT1R-YFP and Flag-AT2R-CFP, serum starved, with or without losartan or PD123319 pre-treatment and AII stimulation; NP-40 lysis buffer (10 mM Tris-HCl pH 7.4, 150 mM NaCl, 5 mM EDTA, 0.5% NP-40, 10% glycerol); anti-FLAG antibody with protein A-Sepharose; blot with anti-HA; conditions: partners not purified
T1 construct: Human angiotensin II type 2 receptor (AT2R); cDNA by RT-PCR from human umbilical vein endothelial cells; printed primers run from the codon after the initial methionine to the last codon; FLAG tag inserted after the initial methionine; subcloned EcoRI-NotI into pCXN2-CFPC; also called CFP-tagged AT2R; source: HeLa cells, transfected (FuGENE HD), in lysate or in living cells; not shown: FLAG, …
T1 sequence (looked up): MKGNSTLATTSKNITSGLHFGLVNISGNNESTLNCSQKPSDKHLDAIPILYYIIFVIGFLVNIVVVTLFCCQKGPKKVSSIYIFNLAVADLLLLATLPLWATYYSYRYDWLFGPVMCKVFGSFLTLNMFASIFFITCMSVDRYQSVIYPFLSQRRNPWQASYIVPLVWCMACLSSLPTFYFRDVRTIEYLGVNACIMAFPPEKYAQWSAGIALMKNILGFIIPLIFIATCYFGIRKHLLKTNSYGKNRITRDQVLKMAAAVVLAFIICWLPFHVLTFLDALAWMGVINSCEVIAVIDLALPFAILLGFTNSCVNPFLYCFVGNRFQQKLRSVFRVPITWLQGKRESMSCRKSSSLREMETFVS

[2] = target: T1, FLAG-AT2R-CFP (angiotensin II type 2 …); assay: co-IP; 293T cells, with or without AII (Suppl. Fig. S3); details not shown; conditions: partners not purified

B1: HA-AT1R-YFP (angiotensin II type 1 receptor) (receptor, human, UniProt P30556 1-359, looked up)
chain: MILNSSTEDGIKRIQDDCPKAGRHNYIFVMIPTLYSIIFVVGIFGNSLVVIVIYFYMKLKTVASVFLLNLALADLCFLLTLPLWAVYTAMEYRWPFGNYLCKIASASVSFNLYASVFLLTCLSIDRYLAIVHPMKSRLRRTMLVAKVTCIIIWLLAGLASLPAIIHRNVFFIENTNITVCAFHYESQNSTLPIGLGLTKNILGFLFPFLIILTSYTLIWKALKKAYEIQKNKPRNDDIFKIIMAIVLFFFFSWIPHQIFTFLDVLIQLGIIRDCRIADIVDTAMPITICIAYFNNCLNPLFYGFLGKKFKRYFLQLLKYIPPKAKSHSNLSTKMSTLSYRPSDNVSSSTKKPAPCFEVE
notes: Human angiotensin II type 1 receptor (AT1R); cDNA by RT-PCR from human umbilical vein endothelial cells; printed primers run from the codon after the initial methionine to the last codon; HA tag inserted after the initial methionine; subcloned EcoRI-NotI into pCXN2-YFPC; The reverse primer also encodes a stretch behind the NotI site that is lost on subcloning EcoRI-NotI into pCXN2-YFPC; also …
- fold enhancement of the association by AII treatment (against no AII) [1]: 1.6 fold
- fold enhancement of the association by AII treatment (against no AII) [2]: 2.4 fold
